Test results reported in the supplement of paper PMC7125110.
± gives the standard error. Fewer inactive variants are shown than the library holds.

B1: glmS ribozyme (parent)
chain: AUAAAAGCGCCAGAACUACAGAAAUGUAGUUGACGAGGAGGAGGUUUAUCGAAUUUUCGGCGGAUGCCUCCAAA

Legend:
Conditions in all cases: with glucosamine-6-phosphate
glucosamine-6-phosphate [1] = variants of: B1; test: self-cleavage kobs at 160 uM GlcN6P; higher = faster cleavage; RNA array
In short: (§1)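 Barcoded ribozyme variants on sequenced MiSeq chips were transcribed in situ by E. coli RNA polymerase and followed at 37 °C through a hybridised Cy3 probe. Glucosamine-6-phosphate at 40 μM to 10 mM in HEPES/KCl/Mg(OAc)2 buffer was flowed in, and tiles were imaged over ~14 h. Signals were normalised to baseline and to non-cleaving reference variants, and per-tile medians were fit to one- or two-exponential decays to give kobs. Weighted Michaelis–Menten fits across concentrations gave kcat and KM.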

glucosamine-6-phosphate [2] = variants of: B1; test: self-cleavage kobs at 2500 uM GlcN6P; higher = faster cleavage; RNA array
In short: as §1

glucosamine-6-phosphate [3] = variants of: B1; test: self-cleavage kobs at 10000 uM GlcN6P; higher = faster cleavage; RNA array
In short: as §1

glucosamine-6-phosphate [4] = variants of: B1; test: self-cleavage kobs at 640 uM GlcN6P; higher = faster cleavage; RNA array
In short: as §1

Variant	self-cleavage kobs at 160 uM GlcN6P (glucosamine-6-phosphate [1]) [s⁻¹]	self-cleavage kobs at 2500 uM GlcN6P (glucosamine-6-phosphate [2]) [s⁻¹]	self-cleavage kobs at 10000 uM GlcN6P (glucosamine-6-phosphate [3]) [s⁻¹]	self-cleavage kobs at 640 uM GlcN6P (glucosamine-6-phosphate [4]) [s⁻¹]
AUAAAAGCGCCAGAACUACAGAAAUGUAGUUGAUGAGGAGGAGGUUAAUCGAAUUUUCGGCGGAUGCCUCCAAA	< 1e-05	< 1e-05		
AUAAAAGCGCCAGAACUACAGAAAUGUAGUUGACGGGUAGGAGGUUUAUCGAAUUUUCGGCGGAUGCCUCCAAA	< 1e-05		< 1e-05	
AUAAAAGCGCCAGAACUACAGAAAUGUAGUUGACCAGGAGGAGGUUUAUCGAAUAUUCGGCGGAUGCCUCCAAA	< 1e-05	< 1e-05		< 1e-05
AUAAAAGCGCCAGAACUACAGAAAUGUAGUUGCGGAGGAGGAGGUUUAUCGAAUUUUCGGCGGAUGCCUCCAAA	< 1e-05			
AUAAAAGCGCCAGAACUACAGAAAUGUAUUUGACGAGGAGGAAGUUUAUCGAAUUUUCGGCGGAUGCCUACAAA	< 1e-05			
AUAAAAGCGCCAGAACUACAGAAAUGUAAUUGACGAGGACGAGGUUUAUCGAAUAGUCGGCGGAUGUCUCCAAA	< 1e-05	< 1e-05		< 1e-05
AUAAAAGCGACAGAACUACAGAAAUGUAGUUGAGGGGGCGGAGGUUUAUCGAAUUUUCGGCGGAAGCCUCCAAA	< 1e-05	< 1e-05		
AUAAAAGCGCCAGAACUACAGAAAUGUAGUUGCCGAGGAGGAGGUUUAUCGAAUUUGCGGCGGAUGCCUCCAAA	< 1e-05			
AUAAAAGCGCCAGAACUACAGAAAUGUAGUUGACGAAGAGGCGGUCUAUCGAAUUUUCGGCGGAUGCCUCCAAA	< 1e-05	< 1e-05		
AUAAAAGCGCCAGAACUACAGAAAUGUAGUUGGCACGGAGGAGGUUUAUCGAAUUUUCGGCGGGUGCCUCCAAA	< 1e-05			
AUAAAAGCGCCAGAACUACAGAAAUGUAGUUGACGAGGCGGAGGUUUGUCGAAUUUUCGGCGGAUGCCUCCAAA	< 1e-05		3.36e-05 ± 1.2e-05	
AUAAAAGCGCCAGAACUACAGAAAUGUAGGUGACGAUGAGGAGGUUUAUCGAAUUUUCGGCGGAUGCCUCCAAA	< 1e-05		< 1e-05	< 1e-05
AUAAAAGCGCCAGUCCUACAGAAAUGUAGUUGACGAGGAGGAGGUUUCUCGAAUUAUCGGCGGAUGACUCCAAA	< 1e-05			
AUAAACGCGCCAGAACUACAGAAAUGUAGUUGACCAGGAGAAGGUUUAUCGAAUUUUCGGCAGAUGCCUCCAAA	< 1e-05			< 1e-05
AUAAAAGAGCAAGAACUACAGAAAUGUAGUUGACGAGGAGGAGGUUUAUCGAAUUUUCGGCGGAUGCCUCCAAA	< 1e-05		< 1e-05	< 1e-05
AUAAAAGCGCUAGAACUACAGAAAUGUAUUUGACGAGGCGGAGGUUUAUCGAAAUUUCGGCGGAUGCCUCCAAA	< 1e-05			
AUAAAAGCGCCAGAACUACAGAAAUGUAAUUGGCGAGGAGGAGGUUUAUCGAAUUUUCGGCGGAUGCCUCCAAA	< 1e-05	< 1e-05	< 1e-05	< 1e-05
AUAAAAGUGCCAGAACUACAGAAAUGUAGUUGACGACGGGGAGGUUUAUCGAAUUUUCGGCGGAUGCCUCCAAA	< 1e-05	< 1e-05	< 1e-05	< 1e-05
